Results taken from patent publication US20130315910A1 (Xencor, published 2013).
Changes are numbered by the printed parent chain. Numbers in names are those of the source.

T1: human FcγRIIb receptor protein (R&D Systems) (human, UniProt P31994 46-217)
T1 construct: Bought protein injected over captured antibody in Biacore; also called CD32b
T1 sequence (looked up): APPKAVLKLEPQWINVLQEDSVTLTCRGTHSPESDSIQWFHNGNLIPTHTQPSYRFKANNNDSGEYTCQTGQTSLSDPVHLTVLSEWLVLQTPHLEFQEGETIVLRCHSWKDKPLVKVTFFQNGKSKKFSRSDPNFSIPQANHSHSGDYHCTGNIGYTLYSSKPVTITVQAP

T2: cynoFcγRIIb (Macaca fascicularis, UniProt A0A140HDP4)
T2 construct: extracellular region, C-terminal His- and GST-tag; also called cynomolgus monkey FcγRIIb
T2 sequence (receptor extracellular region): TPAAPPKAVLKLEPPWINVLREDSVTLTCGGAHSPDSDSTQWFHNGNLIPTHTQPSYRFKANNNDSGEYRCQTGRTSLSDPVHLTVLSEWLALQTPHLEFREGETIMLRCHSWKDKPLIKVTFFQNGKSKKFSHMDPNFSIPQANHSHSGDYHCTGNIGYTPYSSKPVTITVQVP

T3: mFcγRIIb (Mus musculus, UniProt P08101)
T3 construct: extracellular region, C-terminal His- and GST-tag; also called mouse FcγRII
T3 sequence (receptor extracellular region, looked up): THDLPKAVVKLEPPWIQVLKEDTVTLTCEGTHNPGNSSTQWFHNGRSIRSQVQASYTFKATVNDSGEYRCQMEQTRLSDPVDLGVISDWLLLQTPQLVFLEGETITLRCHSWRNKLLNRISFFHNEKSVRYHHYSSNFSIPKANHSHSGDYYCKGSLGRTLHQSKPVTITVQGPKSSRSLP

B1: S267A/L328Y/I332E (antibody, human IgG1, kappa)
heavy: EVQLVESGGGLVKPGGSLKLSCAASGYTFTSYVMHWVRQAPGKGLEWIGYINPYNDGTKYNEKFQGRVTISSDKSISTAYMELSSLRSEDTAMYYCARGTYYYGTRVFDYWGQGTLVTVSSASTKGPSVFPLAPSSKSTSGGTAALGCLVKDYFPEPVTVSWNSGALTSGVHTFPAVLQSSGLYSLSSVVTVPSSSLGTQTYICNVNHKPSNTKVDKKVEPKSCDKTHTCPPCPAPELLGGPSVFLFPPKPKDTLMISRTPEVTCVVVDVAHEDPEVKFNWYVDGVEVHNAKTKPREEQYNSTYRVVSVLTVLHQDWLNGKEYKCKVSNKAYPAPEEKTISKAKGQPREPQVYTLPPSREEMTKNQVSLTCLVKGFYPSDIAVEWESNGQPENNYKTTPPVLDSDGSFFLYSKLTVDKSRWQQGNVFSCSVMHEALHNHYTQKSLSLSPGK
light: DIVMTQSPATLSLSPGERATLSCRSSKSLQNVNGNTYLYWFQQKPGQSPQLLIYRMSNLNSGVPDRFSGSGSGTEFTLTISSLEPEDFAVYYCMQHLEYPITFGAGTKLEIKRTVAAPSVFIFPPSDEQLKSGTASVVCLLNNFYPREAKVQWKVDNALQSGNSQESVTEQDSKDSTYSLSSTLTLSKADYEKHKVYACEVTHQGLSSPVTKSFNRGEC
notes: HuAM4G7 anti-CD19 IgG1 (m1) with these Fc substitutions, EU index; copies: 2 + 2
B2: P331S (antibody, human IgG1, kappa)
heavy: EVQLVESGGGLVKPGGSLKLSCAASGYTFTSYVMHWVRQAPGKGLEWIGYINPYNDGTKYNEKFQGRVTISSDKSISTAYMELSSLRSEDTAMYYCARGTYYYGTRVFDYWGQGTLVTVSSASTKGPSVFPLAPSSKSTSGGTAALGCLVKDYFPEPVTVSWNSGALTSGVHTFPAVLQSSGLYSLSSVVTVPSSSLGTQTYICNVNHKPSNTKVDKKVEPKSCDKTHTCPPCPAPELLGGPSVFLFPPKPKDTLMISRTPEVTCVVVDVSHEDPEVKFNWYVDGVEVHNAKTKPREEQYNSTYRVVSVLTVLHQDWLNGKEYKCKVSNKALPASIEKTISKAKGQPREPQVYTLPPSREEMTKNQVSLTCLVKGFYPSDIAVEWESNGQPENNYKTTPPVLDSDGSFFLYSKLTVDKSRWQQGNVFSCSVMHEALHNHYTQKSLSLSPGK
light: B1 light
notes: HuAM4G7 anti-CD19 IgG1 (m1) with this Fc substitution, EU index; copies: 2 + 2
B3: H268D/L328Y/I332E (antibody, human IgG1, kappa)
heavy: B1 heavy with A271S, H272D
light: B1 light
notes: as for B1
B4: L234W/S239D/L328Y (antibody, human IgG1, kappa)
heavy: B1 heavy with L238W, S243D, A271S, E336I
light: B1 light
notes: as for B1
B5: K326E (antibody, human IgG1, kappa)
heavy: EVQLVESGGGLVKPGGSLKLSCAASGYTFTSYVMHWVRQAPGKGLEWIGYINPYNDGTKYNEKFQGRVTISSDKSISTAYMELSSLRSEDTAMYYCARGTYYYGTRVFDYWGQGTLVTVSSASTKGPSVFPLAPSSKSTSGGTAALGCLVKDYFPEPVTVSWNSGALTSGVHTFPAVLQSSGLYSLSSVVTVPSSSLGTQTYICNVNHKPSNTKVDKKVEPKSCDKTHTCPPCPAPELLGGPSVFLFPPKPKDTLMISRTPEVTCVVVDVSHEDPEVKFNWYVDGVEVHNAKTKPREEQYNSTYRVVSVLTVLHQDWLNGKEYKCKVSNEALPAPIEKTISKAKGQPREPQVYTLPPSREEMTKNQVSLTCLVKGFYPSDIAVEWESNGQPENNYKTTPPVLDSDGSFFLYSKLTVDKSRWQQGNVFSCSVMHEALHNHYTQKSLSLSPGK
light: B1 light
notes: as for B2
B6: L235F/H268D/L328Y (antibody, human IgG1, kappa)
heavy: B1 heavy with L239F, A271S, H272D, E336I
light: B1 light
notes: as for B1
B7: A330S (antibody, human IgG1, kappa)
heavy: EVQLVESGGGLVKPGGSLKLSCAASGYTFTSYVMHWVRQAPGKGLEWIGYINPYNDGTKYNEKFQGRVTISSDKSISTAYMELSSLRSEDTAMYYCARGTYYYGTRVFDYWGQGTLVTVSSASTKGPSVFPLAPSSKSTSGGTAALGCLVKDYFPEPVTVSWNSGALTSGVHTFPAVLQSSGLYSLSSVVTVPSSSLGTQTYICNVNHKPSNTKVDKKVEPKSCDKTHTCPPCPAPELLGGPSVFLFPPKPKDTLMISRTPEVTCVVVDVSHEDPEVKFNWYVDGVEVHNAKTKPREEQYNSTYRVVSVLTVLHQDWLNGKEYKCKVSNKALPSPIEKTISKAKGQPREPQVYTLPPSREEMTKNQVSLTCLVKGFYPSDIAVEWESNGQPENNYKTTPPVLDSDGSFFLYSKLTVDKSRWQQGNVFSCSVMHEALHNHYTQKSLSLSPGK
light: B1 light
notes: as for B2
B8: L235F/S239D/L328Y (antibody, human IgG1, kappa)
heavy: B1 heavy with L239F, S243D, A271S, E336I
light: B1 light
notes: as for B1
B9: K326A (antibody, human IgG1, kappa)
heavy: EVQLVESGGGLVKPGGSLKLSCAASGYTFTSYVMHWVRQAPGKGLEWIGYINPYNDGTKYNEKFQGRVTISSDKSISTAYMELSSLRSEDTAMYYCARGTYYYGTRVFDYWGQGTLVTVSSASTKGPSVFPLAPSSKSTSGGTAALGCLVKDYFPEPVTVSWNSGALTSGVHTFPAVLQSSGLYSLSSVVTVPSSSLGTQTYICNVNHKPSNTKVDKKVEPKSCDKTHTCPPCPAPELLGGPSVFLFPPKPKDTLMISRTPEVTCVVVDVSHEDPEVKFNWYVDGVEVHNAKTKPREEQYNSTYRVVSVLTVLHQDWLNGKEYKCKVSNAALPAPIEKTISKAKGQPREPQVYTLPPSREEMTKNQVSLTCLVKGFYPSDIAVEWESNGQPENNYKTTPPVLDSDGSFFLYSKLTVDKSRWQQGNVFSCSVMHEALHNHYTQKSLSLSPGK
light: B1 light
notes: as for B2
B10: A330K (antibody, human IgG1, kappa)
heavy: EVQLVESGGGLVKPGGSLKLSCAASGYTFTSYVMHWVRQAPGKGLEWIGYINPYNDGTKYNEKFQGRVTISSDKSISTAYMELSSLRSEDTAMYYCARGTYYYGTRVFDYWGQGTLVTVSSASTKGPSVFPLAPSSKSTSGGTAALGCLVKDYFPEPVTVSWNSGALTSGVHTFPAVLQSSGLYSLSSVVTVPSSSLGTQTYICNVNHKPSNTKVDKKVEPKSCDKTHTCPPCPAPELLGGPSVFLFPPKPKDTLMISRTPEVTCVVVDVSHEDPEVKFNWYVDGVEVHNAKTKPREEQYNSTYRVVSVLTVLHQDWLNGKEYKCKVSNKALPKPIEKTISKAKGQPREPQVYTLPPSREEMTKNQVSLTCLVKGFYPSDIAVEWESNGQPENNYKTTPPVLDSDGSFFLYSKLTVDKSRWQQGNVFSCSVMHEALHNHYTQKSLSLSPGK
light: B1 light
notes: as for B2
B11: L328Y/I332E (antibody, human IgG1, kappa)
heavy: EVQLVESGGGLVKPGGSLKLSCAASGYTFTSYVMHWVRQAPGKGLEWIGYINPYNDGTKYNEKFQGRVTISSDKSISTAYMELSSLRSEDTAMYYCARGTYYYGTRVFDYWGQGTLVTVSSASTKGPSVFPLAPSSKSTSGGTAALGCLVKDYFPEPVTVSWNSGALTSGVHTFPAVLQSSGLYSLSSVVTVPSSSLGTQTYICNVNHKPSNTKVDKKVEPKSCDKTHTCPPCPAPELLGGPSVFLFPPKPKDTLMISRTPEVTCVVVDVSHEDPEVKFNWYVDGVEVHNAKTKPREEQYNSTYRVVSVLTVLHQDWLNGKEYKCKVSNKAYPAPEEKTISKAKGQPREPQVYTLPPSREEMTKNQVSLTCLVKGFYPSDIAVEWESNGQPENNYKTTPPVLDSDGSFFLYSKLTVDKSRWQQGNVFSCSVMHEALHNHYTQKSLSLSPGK
light: B1 light
notes: as for B1
B12: K326W (antibody, human IgG1, kappa)
heavy: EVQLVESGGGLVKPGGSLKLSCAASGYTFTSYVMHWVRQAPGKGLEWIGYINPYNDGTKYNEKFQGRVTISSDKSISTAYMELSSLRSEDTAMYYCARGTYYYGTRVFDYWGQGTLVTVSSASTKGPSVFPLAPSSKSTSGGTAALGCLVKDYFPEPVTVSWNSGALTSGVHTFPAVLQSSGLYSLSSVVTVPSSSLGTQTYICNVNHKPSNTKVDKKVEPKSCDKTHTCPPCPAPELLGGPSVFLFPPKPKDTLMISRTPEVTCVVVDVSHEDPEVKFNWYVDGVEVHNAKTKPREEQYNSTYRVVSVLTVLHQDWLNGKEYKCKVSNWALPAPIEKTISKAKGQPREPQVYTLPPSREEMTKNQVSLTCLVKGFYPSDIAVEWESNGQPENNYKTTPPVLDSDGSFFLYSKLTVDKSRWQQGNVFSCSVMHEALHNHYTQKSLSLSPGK
light: B1 light
notes: as for B2
B13: H268D/K326D/L328Y (antibody, human IgG1, kappa)
heavy: B1 heavy with A271S, H272D, K330D, E336I
light: B1 light
notes: as for B1
B14: K326D/L328Y/I332E (antibody, human IgG1, kappa)
heavy: B1 heavy with A271S, K330D
light: B1 light
notes: as for B1
B15: L235F/L328Y/I332E (antibody, human IgG1, kappa)
heavy: B1 heavy with L239F, A271S
light: B1 light
notes: as for B1
B16: L234W/L328Y/I332E (antibody, human IgG1, kappa)
heavy: B1 heavy with L238W, A271S
light: B1 light
notes: as for B1
B17: A327D/L328Y/I332E (antibody, human IgG1, kappa)
heavy: B1 heavy with A271S, A331D
light: B1 light
notes: as for B1

target: T1, human FcγRIIb receptor protein (R&D …); test: SPR

Binder	Fold vs WT IgG1	Kd	binding result
B1	13.5 fold	109 nM	–
B2	0.0372 fold	39400 nM	–
B3	4.89 fold	300 nM	–
B4	32.8 fold	44.8 nM	–
B5	6.09 fold	241 nM	–
B6	3.97 fold	370 nM	–
B7	0.0635 fold	23100 nM	–
B8	6.82 fold	215 nM	–
B9	–	–	no binding
B10	1.55 fold	947 nM	–
B11	2.08 fold	705 nM	–
B12	3.04 fold	483 nM	–
B13	18.6 fold	78.9 nM	–
B14	2.65 fold	553 nM	–
B15	3.31 fold	443 nM	–
B16	6.32 fold	232 nM	–
B17	2.31 fold	636 nM	–

target: T2, cynoFcγRIIb; test: SPR
Description: (§1) Variants were screened for receptor affinity using Biacore™ technology, also referred to as Biacore herein, a surface plasmon resonance (SPR) based technology for studying biomolecular interactions in real time. SPR measurements were performed using a Biacore 3000 instrument (Biacore, Piscataway, N.J.). A protein A/G (Pierce Biotechnology) CM5 biosensor chip (Biacore) was generated using a standard primary amine coupling protocol. All measurements were performed using HBS-EP buffer (10 mM HEPES pH 7.4, 0.15 M NaCl, 3 mM EDTA, 0.005% vol/vol surfactant P20, Biacore). Antibodies at 20 nM or 50 nM in HBS-EP buffer were immobilized on the protein A/G surface and FcγRs were injected. After each cycle, the surface was regenerated by injecting glycine buffer (10 mM, pH 1.5). Data were processed by zeroing time and response before the injection of FcγR and by subtracting appropriate nonspecific signals (response of reference channel and injection of running buffer). Kinetic analyses were performed by global fitting of binding data with a 1:1 Langmuir binding model using BIAevaluation software (Biacore).
(§2) Variant antibodies were tested for their affinity to mouse or cynologous monkey FcγRs using Biacore SPR as described above. Specifically, antibodies were first immobilized on a protein A/G chip to high density, and then followed by injections of the extracellular domain of the mouse or cynologous monkey FcγR of interest. Both association and dissociation phases were tracked in real time using the Biacore technology.

Binder	Fold vs WT IgG1 (Kd)
B1	3.65 fold
B2	0.25 fold
B3	4.08 fold
B4	5.92 fold
B5	1.03 fold
B6	3.17 fold
B7	0.255 fold
B8	5.2 fold
B9	1.36 fold
B10	2.02 fold
B11	4.6 fold
B12	0.078 fold
B13	9.38 fold
B14	4.78 fold
B15	4.11 fold
B16	2.04 fold
B17	1.02 fold

target: T3, mFcγRIIb; test: SPR
Description: as §1, §2

Binder	Fold vs WT IgG1 (Kd)
B1	2.63 fold
B2	0.085 fold
B3	1.28 fold
B4	44.1 fold
B5	0.605 fold
B6	6.82 fold
B7	0.054 fold
B8	31.2 fold
B9	0.164 fold
B10	0.296 fold
B11	0.434 fold
B12	0.429 fold
B13	19.4 fold
B14	1.87 fold
B15	0.843 fold
B16	0.617 fold
B17	1.24 fold
